Laboratory results from patent publication US20240343814A1.

What was measured:
[1] = biological target: Recombinant human his-tagged IGF 1R extracellular domain protein (human) (UniProt P08069); assay: SPR, captured IgG, IGF-1R ECD-his analyte, dissociation pH 6
[2] = biological target: Recombinant human his-tagged IGF 1R extracellular domain protein (human) (UniProt P08069); assay: SPR, captured IgG, IGF-1R ECD-his analyte, dissociation pH 7.4

Binder	Kd [1] [nM]	koff [1] [s⁻¹]	kon [1] [M⁻¹ s⁻¹]	Kd [2] [nM]	koff [2] [s⁻¹]	kon [2] [M⁻¹ s⁻¹]
VRDN-02550 (antibody, V domains shown) VH: EVQLVQSGGGLVKPGGSLRLSCAASGFTFSSFAMHWVRQAPGKGLEWISVIDTRGATYYADSVKGRFTISRDNAKNSLYLQMNSLRAEDTAVYYCARLGNFYYGMDVWGQGTTVTVSS VL: EIVLTQSPGTLSVSPGERATLSCRASQSIGSSLHWYQQKPGQAPRLLIKYASQSLSGIPDRFSGSGSGTDFTLTISRLEPEDFAVYYCHQSSRHPHTFGQGTKVEIK	0.027	1e-06	37000	0.131	2.09e-05	160000
VRDN-02505 (antibody, V domains shown) VH: EVQLVQSGGGLVKPGGSLRLSCAASGFTFHSFAMHWVRQAPGKGLEWISVIDTRGATYYADSVKGRFTISRDNAKNSLYLQMNSLRAEDTAVYYCARLGNFYYGMDVWGQGTTVTVSS VL: EIVLTQSPGTLSVSPGERATLSCRASQSIGSSLHWYQQKPGQAPRLLIKYASQSLSGIPDRFSGSGSGTDFTLTISRLEPEDFAVYYCHQSSRLPHTFGQGTKVEIK	0.0422	1e-06	23700	2.6	0.000375	144000
VRDN-02551 (antibody, V domains shown) VH: EVQLVQSGGGLVKPGGSLRLSCAASGFTFSSFAMHWVRQAPGKGLEWISVIDTRGATYYADSVKGRFTISRDNAKNSLYLQMNSLRAEDTAVYYCARLGNFYYGMDVWGQGTTVTVSS VL: EIVLTQSPGTLSVSPGERATLSCRASQSIGSSLHWYQQKPGQAPRLLIKYASQSLSGIPDRFSGSGSGTDFTLTISRLEPEDFAVYYCHQSSRLHHTFGQGTKVEIK	0.0348	1e-06	28700	0.771	6.38e-05	82800
VRDN-02506 (antibody, V domains shown) VH: EVQLVQSGGGLVKPGGSLRLSCAASGFTFSHFAMHWVRQAPGKGLEWISVIDTRGATYYADSVKGRFTISRDNAKNSLYLQMNSLRAEDTAVYYCARLGNFYYGMDVWGQGTTVTVSS VL: EIVLTQSPGTLSVSPGERATLSCRASQSIGSSLHWYQQKPGQAPRLLIKYASQSLSGIPDRFSGSGSGTDFTLTISRLEPEDFAVYYCHQSSRLPHTFGQGTKVEIK	0.0267	1e-06	37400	0.0143	1e-06	69900
VRDN-02556 (antibody, V domains shown) VH: EVQLVQSGGGLVKPGGSLRLSCAASGFTFSSFAMHWVRQAPGKGLEWISVIDTRGATYYADSVKGRFTISRDNAKNSLYLQMNSLRAEDTAVYYCARLGNFYYHMDVWGQGTTVTVSS VL: EIVLTQSPGTLSVSPGERATLSCRASQSIGSSLHWYQQKPGQAPRLLIKHASQSLSGIPDRFSGSGSGTDFTLTISRLEPEDFAVYYCHQSSRLPHTFGQGTKVEIK	8.47	0.0146	1.72e+06	10.4	0.0127	1.22e+06
VRDN-02507 (antibody, V domains shown) VH: EVQLVQSGGGLVKPGGSLRLSCAASGFTFSSHAMHWVRQAPGKGLEWISVIDTRGATYYADSVKGRFTISRDNAKNSLYLQMNSLRAEDTAVYYCARLGNFYYGMDVWGQGTTVTVSS VL: EIVLTQSPGTLSVSPGERATLSCRASQSIGSSLHWYQQKPGQAPRLLIKYASQSLSGIPDRFSGSGSGTDFTLTISRLEPEDFAVYYCHQSSRLPHTFGQGTKVEIK	0.0469	1e-06	21300	0.1	1.99e-05	199000
VRDN-02552 (antibody, V domains shown) VH: EVQLVQSGGGLVKPGGSLRLSCAASGFTFSSFAMHWVRQAPGKGLEWISVIDTRGATYYADSVKGRFTISRDNAKNSLYLQMNSLRAEDTAVYYCARLGNFYYGMDVWGQGTTVTVSS VL: EIVLTQSPGTLSVSPGERATLSCRASQSIGSSLHWYQQKPGQAPRLLIKYASQSLSGIPDRFSGSGSGTDFTLTISRLEPEDFAVYYCHQSSRLPHHFGQGTKVEIK	0.0239	1e-06	41900	0.0311	1e-06	32200
VRDN-02508 (antibody, V domains shown) VH: EVQLVQSGGGLVKPGGSLRLSCAASGFTFSSFHMHWVRQAPGKGLEWISVIDTRGATYYADSVKGRFTISRDNAKNSLYLQMNSLRAEDTAVYYCARLGNFYYGMDVWGQGTTVTVSS VL: EIVLTQSPGTLSVSPGERATLSCRASQSIGSSLHWYQQKPGQAPRLLIKYASQSLSGIPDRFSGSGSGTDFTLTISRLEPEDFAVYYCHQSSRLPHTFGQGTKVEIK	3.9	0.000207	53100	0.00515	1e-06	194000
VRDN-02510 (antibody, V domains shown) VH: EVQLVQSGGGLVKPGGSLRLSCAASGFTFSSFAMHWVRQAPGKGLEWISVIHTRGATYYADSVKGRFTISRDNAKNSLYLQMNSLRAEDTAVYYCARLGNFYYGMDVWGQGTTVTVSS VL: EIVLTQSPGTLSVSPGERATLSCRASQSIGSSLHWYQQKPGQAPRLLIKYASQSLSGIPDRFSGSGSGTDFTLTISRLEPEDFAVYYCHQSSRLPHTFGQGTKVEIK	3.84	0.000116	30200	0.214	5.3e-05	248000
VRDN-02509 (antibody, V domains shown) VH: EVQLVQSGGGLVKPGGSLRLSCAASGFTFSSFAHHWVRQAPGKGLEWISVIDTRGATYYADSVKGRFTISRDNAKNSLYLQMNSLRAEDTAVYYCARLGNFYYGMDVWGQGTTVTVSS VL: EIVLTQSPGTLSVSPGERATLSCRASQSIGSSLHWYQQKPGQAPRLLIKYASQSLSGIPDRFSGSGSGTDFTLTISRLEPEDFAVYYCHQSSRLPHTFGQGTKVEIK	0.0285	1e-06	35100	0.285	4.81e-05	169000
VRDN-02511 (antibody, V domains shown) VH: EVQLVQSGGGLVKPGGSLRLSCAASGFTFSSFAMHWVRQAPGKGLEWISVIDHRGATYYADSVKGRFTISRDNAKNSLYLQMNSLRAEDTAVYYCARLGNFYYGMDVWGQGTTVTVSS VL: EIVLTQSPGTLSVSPGERATLSCRASQSIGSSLHWYQQKPGQAPRLLIKYASQSLSGIPDRFSGSGSGTDFTLTISRLEPEDFAVYYCHQSSRLPHTFGQGTKVEIK	4.28	0.000672	157000	41.6	0.0319	766000

The next lines start with the values.

Kd [1] [nM]	koff [1] [s⁻¹]	kon [1] [M⁻¹ s⁻¹]	Kd [2] [nM]	koff [2] [s⁻¹]	kon [2] [M⁻¹ s⁻¹]	Binder
0.615	0.00239	3.88e+06	8.16	0.00119	146000	VRDN-02557 (antibody, V domains shown) VH: EVQLVQSGGGLVKPGGSLRLSCAASGFTFSSFAMHWVRQAPGKGLEWISVIDTRGATYYADSVKGRFTISRDNAKNSLYLQMNSLRAEDTAVYYCARLGNFYYGHDVWGQGTTVTVSS VL: EIVLTQSPGTLSVSPGERATLSCRASQSIGSSLHWYQQKPGQAPRLLIKHASQSLSGIPDRFSGSGSGTDFTLTISRLEPEDFAVYYCHQSSRLPHTFGQGTKVEIK
5.77	0.0198	3.43e+06	9.12	0.0243	2.66e+06	VRDN-02565 (antibody, V domains shown) VH: EVQLVQSGGGLVKPGGSLRLSCAASGFTFSSFAMHWVRQAPGKGLEWISVIDTRGATYYADSVKGRFTISRDNAKNSLYLQMNSLRAEDTAVYYCHRLGNFYYHMDVWGQGTTVTVSS VL: EIVLTQSPGTLSVSPGERATLSCRASQSIGSSLHWYQQKPGQAPRLLIKYASQSLSGIPDRFSGSGSGTDFTLTISRLEPEDFAVYYCHQSSRLPHTFGQGTKVEIK
1.74	0.000567	327000	0.593	0.000503	849000	VRDN-02559 (antibody, V domains shown) VH: EVQLVQSGGGLVKPGGSLRLSCAASGFTFSSFHMHWVRQAPGKGLEWISVIDTRGATYYADSVKGRFTISRDNAKNSLYLQMNSLRAEDTAVYYCHRLGNFYYGMDVWGQGTTVTVSS VL: EIVLTQSPGTLSVSPGERATLSCRASQSIGSSLHWYQQKPGQAPRLLIKYASQSLSGIPDRFSGSGSGTDFTLTISRLEPEDFAVYYCHQSSRLPHTFGQGTKVEIK
5.41	0.000569	105000	2.77	0.000473	171000	VRDN-02567 (antibody, V domains shown) VH: EVQLVQSGGGLVKPGGSLRLSCAASGFTFSSFAMHWVRQAPGKGLEWISVIDTRGATYYADSVKGRFTISRDNAKNSLYLQMNSLRAEDTAVYYCARLGNFYYHHDVWGQGTTVTVSS VL: EIVLTQSPGTLSVSPGERATLSCRASQSIGSSLHWYQQKPGQAPRLLIKYASQSLSGIPDRFSGSGSGTDFTLTISRLEPEDFAVYYCHQSSRLPHTFGQGTKVEIK
3	0.00885	2.95e+06	17.4	0.0197	1.14e+06	VRDN-02566 (antibody, V domains shown) VH: EVQLVQSGGGLVKPGGSLRLSCAASGFTFSSFAMHWVRQAPGKGLEWISVIDTRGATYYADSVKGRFTISRDNAKNSLYLQMNSLRAEDTAVYYCHRLGNFYYGHDVWGQGTTVTVSS VL: EIVLTQSPGTLSVSPGERATLSCRASQSIGSSLHWYQQKPGQAPRLLIKYASQSLSGIPDRFSGSGSGTDFTLTISRLEPEDFAVYYCHQSSRLPHTFGQGTKVEIK
0.996	0.000541	543000	0.933	0.0336	3.61e+07	VRDN-02560 (antibody, V domains shown) VH: EVQLVQSGGGLVKPGGSLRLSCAASGFTFSSFHMHWVRQAPGKGLEWISVIDTRGATYYADSVKGRFTISRDNAKNSLYLQMNSLRAEDTAVYYCARLGNFYYHMDVWGQGTTVTVSS VL: EIVLTQSPGTLSVSPGERATLSCRASQSIGSSLHWYQQKPGQAPRLLIKYASQSLSGIPDRFSGSGSGTDFTLTISRLEPEDFAVYYCHQSSRLPHTFGQGTKVEIK
